Three substances from paper doi:10.1101/2022.09.11.507491 can be followed below.

This experiment addresses HA-CXCR4-RLuc3 (UniProt P61073). The experiment can be described thus: FRET or BRET. (BRET reads energy transfer from a luciferase to a nearby fluorophore.)
Sequence of UniProt P61073 (P61073 whole entry): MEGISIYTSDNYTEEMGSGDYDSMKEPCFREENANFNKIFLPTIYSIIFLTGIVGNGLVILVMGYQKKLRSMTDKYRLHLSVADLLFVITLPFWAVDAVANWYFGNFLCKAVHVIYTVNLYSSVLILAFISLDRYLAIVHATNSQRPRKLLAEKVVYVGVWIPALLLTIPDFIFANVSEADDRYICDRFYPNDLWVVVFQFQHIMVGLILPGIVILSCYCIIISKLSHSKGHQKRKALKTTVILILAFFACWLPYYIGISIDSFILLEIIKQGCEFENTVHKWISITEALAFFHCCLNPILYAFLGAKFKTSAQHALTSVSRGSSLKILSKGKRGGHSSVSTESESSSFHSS

The substance mVenus-mini-Gαs/i(Y320F) displayed a Kd of BRET acceptor saturation (x axis: acceptor gMFI) of 13.4. Take mVenus-miniGαs/i WT: the Kd of BRET acceptor saturation (x axis: acceptor gMFI) came out at 7.1.

mVenus-miniGαs/i(Y320E) displayed a Kd of BRET acceptor saturation (x axis: acceptor gMFI) of 16.7.
